Patent US20010016352, “NUCLEIC ACID SEQUENCES CONTROLLING LUNG CELL-SPECIFIC GENE EXPRESSION” (published 2001)

What was measured:
TTF-1 full length = biological target: T1, TTF-1 full length (UniProt P23441); experiment: cell_activity; settings: SV40-P F + pCMV-TTF-1 in H441, relative to SV40-P =1 (3.5 without TTF-1)
T1 sequence: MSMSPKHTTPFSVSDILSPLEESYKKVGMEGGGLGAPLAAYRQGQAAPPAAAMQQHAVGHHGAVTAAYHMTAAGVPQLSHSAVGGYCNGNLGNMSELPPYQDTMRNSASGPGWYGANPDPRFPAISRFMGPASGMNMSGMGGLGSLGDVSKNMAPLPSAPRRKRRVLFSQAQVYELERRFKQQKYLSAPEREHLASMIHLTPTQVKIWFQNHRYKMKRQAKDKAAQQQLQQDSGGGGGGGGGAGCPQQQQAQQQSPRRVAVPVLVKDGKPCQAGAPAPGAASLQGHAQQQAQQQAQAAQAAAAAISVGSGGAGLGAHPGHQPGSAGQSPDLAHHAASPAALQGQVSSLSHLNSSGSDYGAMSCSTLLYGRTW

[1] = biological target: T2, TTF-1 homeodomain (TTF-1 HD) (Rattus norvegicus, UniProt P23441 P23441:161-220); experiment: EMSA; two complexes A' and B'; on ice, 5 mM MgCl2; settings: tags: bacterially expressed homeodomain fragment; label: 32P
T2 sequence: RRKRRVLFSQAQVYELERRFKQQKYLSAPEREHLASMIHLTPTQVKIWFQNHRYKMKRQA
Experimental: The electrophoretic mobility shift assay (EMSA) was adapted from Hennighausen and Lubon, Meth. Enzymol., Vol. 152, pgs. 727-735 (1987). Briefly, nuclear extract (1-2 μl) and, when indicated, unlabeled oligonucleotide competitor DNA were preincubated in 20 μl Buffer C (12 mM HEPES, pH 7.9; 4 mM Tris-Cl pH 7.9; 25 mM KCl; 5 mM MgCl₂; 1 mM EDTA; 1 mM DTT; 50 ng μl⁻¹ poly[d(I-C)], Boehringer Mannheim; 0.2 mM fresh PMSF) for 10 minutes on ice. Probe (100,000 dpm) was added and incubated an additional 20 minutes on ice. For antibody supershift and interference assays, 1 μl of antibody was added after the addition of probe and incubated an additional 20 minutes on ice. TTF-1 antibody is described in Lazzaro et al., Development, Vol. 113, pgs. 1093-1104 (1991). HNF-3α, β, and γ antibodies were kindly provided by Dr. J. E. Darnell, Jr. (Lai et al., Genes and Devel., Vol. 5, pgs. 416-427 (1991)). Recombinant, bacterially expressed TTF-1 homeodomain protein (TTF-1 HD) is described in Guazzi et al., EMBO J., Vol. 9, pgs. 3631-3639 (1990). Assays were performed using 1 μl TTF-1 HD in place of nuclear extract. Bound and free probe were resolved using non-denaturing polyacrylamide gel electrophoresis. […]

[2] = biological target: T2, TTF-1 homeodomain (TTF-1 HD); experiment: EMSA; settings: tags: bacterially expressed homeodomain fragment; label: 32P

For “CAGGGCTTGCCCTGGGTTAAGAGCCAGGCAGGAAGCTCTCAAGAGCATTGCTCAGAGGGGGCCTGGGTGGCCCAGGGAGGGGATGCGAGGGGAACACCCAGGC (double strand) [hSP-B -439/-331 enhancer]”, the activity (TTF-1 full length) was 8.3 fold.

B1: SPB-f1 (dsDNA)
DNA 1: AGCACCTGGAGGGCTCTTCAGAGC
DNA 2: GCTCTGAAGAGCCCTCCAGGTGCT
B1: binds [1].

B2: Ba wild type (dsDNA)
DNA 1: CAGGGCTTGCCCTGGGTTAAGAGCCAGGCA
DNA 2: TGCCTGGCTCTTAACCCAGGGCAAGCCCTG
B2: binds [2].
